# Laboratory results taken from the DeepSol protein solubility set.
# Test: soluble on expression in E. coli; label from the status in PepcDB or PDB records
row,Sequence,soluble on expression in E. coli
1,SSRVTYPLRKMREGAQDLAKGKFDTKIPILTQDEIGELATAFNQMGRQLNFHINALNQEKEQLSNILSSMADGVITINIDGTILVTNPPAERFLQAWYYEQNMNIKEGDNLPPEAKELFQNAVSTEKEQMIEMTLQGRSWVLLMSPLYAESHVRGAVAVLRDMTEERRLDKLREDFIANVSHELRTPISMLQGYSEAIVDDIASSEEDRKEIAQIIYDESLRMGRLVNDLLDLARMESGHTGLHYEKINVNEFLEKIIRKFSGVAKEKNIALDHDISLTEEEFMFDEDKMEQVFTNLIDNALRHTSAGGSVSISVHSVKDGLKIDIKDSGSGIPEEDLPFIFERFYKADKARTRGRAGTGLGLAIVKNIVEAHNGSITVHSRIDKGTTFSFYIPTKR,not soluble
2,SSSTLGKLSNQVEETLPLLKKVPANYFHICSAILMGFSLSKSATQVSAIHMDSKVDDHLIRGTEKSRLEPATQLFQNTKKIRLEDTNQENFTRIEGTGTGSLSGKALGSVVYVKESDGLEMTDVE,soluble
3,SSVWNLGRLNHVAIAVPDLEKAAAFYKNILGAQVSEAVPLPEHGVSVVFVNLGNTKMELLHPLGLDSPIAGFLQKNKAGGMHHICIEVDNINAAVMDLKKKKIRSLSEEVKIGAHGKPVIFLHPKDCGGVLVELEQA,soluble
4,STAKNSPKEFTASESEVCIKTFKEQMRLELELPKLPGNRPTSPKISPRSSPRNSPCFFRKLLVNKSIRQRRRFTVAHTCFDVENGPSPGRSPLDPQAGSSSGLVLHAAFPGHSQRRESFLYRSDSDYDLSPKAMSRNSSLPSEQHGDDLIVTPFAQVLASLRSVRNNFTLLTNLHGAPNKRSPAASQAPVSRVSLQVCDHRRLTKCRESKRC,not soluble
5,STGNAGEWCLMESDPGVFTELIKGFGCRGAQVEEIWSLEPENFEKLKPVHGLIFLFKWQPGEEPAGSVVQDSRLDTIFFAKQVINNACATQAIVSVLLNCTHQDVHLGETLSEFKEFSQSFDAAMKGLALSNSDVIRQVHNSFARQQMFEFDTKTSAKEEDAFHFVSYVPVNGRLYELDGLREGPIDLGACNQDDWISAVRPVIEKRIQKYSEGEIRFNLMAIVSDRKMIYEQKIAELQRQLAEEPMDTDQGNSMLSAIQSEVAKNQMLIEEEVQKLKRYKIENIRRKHNYLPFIMELLKTLAEHQQLIPLVEKAKEKQNAKKAQETK,soluble
6,STGVPATDLQQSIMKNVQPIELYFDNELVTDCSALGVYDNSYLVPLHLFEFDFDTIVLGGRHYKKAECEKVEFELEVNGDMVSSDACLLRVPSGPKVRNIVHLFTNEIELKKMTQVTGIMNSPHQARTVFFGSFLTVRKSILTSDGTVMPNVLSYAAQTSRGYCGAAIVAGSPARIIGIHSAGTGSVAFCSLVSKDALERTLPQKQ,not soluble
7,STKLLYLKPIQTGFPSDSDSRFVFSKLDSLSLRRQIPISISNSVLHSSLPAAKSLGLNVEVSESGMCSLNFRDEKTVTGAPELLCKTLYAWEAAISPHLAAERENATVEDSVVLQMIEKCLKEEMECGVKSEKSDLLCLVETAGGVASPGPSGTLQCDLYRPFRLPGILVGDGRLGGISGTIAAYESLKLRGYDIAAVVFEDHGLVNEVPLTSYLRNK,soluble
8,STPTSQALYSDFSPPEGLEELLSAPPPDLVAQRHHGWNPKDCSENIDVKEGGLCFERRPVAQSTDGVRGKRGYSRGLHAWEISWPLEQRGTHAVVGVATALAPLQADHYAALLGSNSESWGWDIGRGKLYHQSKGLEAPQYPAGPQGEQLVVPERLLVVLDMEEGTLGYSIGGTYLGPAFRGLKGRTLYPSVSAVWGQCQVRIRYMGERRVEE,soluble
9,SVACLSCRKRHIKCPGGNPCQKCVTSNAICEYLEPSKKIVVSTKYLQQLQKDLNDKTEENNRLKALLLER,soluble
10,SVELSAGQSIIADAAGALGPVNRDDAPAATWREGRVSFSGTPLMQALAEFERYGDTGLVIRDPAVAALKVNGSFDLRQIGAFARALPRVLPVQLSTRDGQTEII,not soluble
11,SVGHLHLQAMGDTREQSRDGLLDSPDSGLPPSPSPSPPFYALSPGTLDTRTTTEAPAAPSLFQTPPALEMRSRLLPVFFGESIEVDPEPAHEIRCNSEITYASERYFRDKIFYAPVPTVTAYSETIVAAPNCTWRSYRSQLTLEPRPRALRFGSTAIIFPKLARSSFRTTLHCSLGQPRHWYSSSLQLRRCGDPTPGPSCPDVL,soluble
12,SVLLQMTQRLALSDAHFRRICQLIYQRAGIVLADHKRDMVYNRLVRRLRALGLDDFGRYLSMLEANQNSAEWQAFINALTTNLTAFFREAHHFPILAEHARRRHGEYRVWSAAASTGEEPYSIAITLADALGMAPGRWKVFASDIDTEVLEKARSGIYRLSELKTLSPQQLQRYFMRGTGPHEGLVRVRQELANYVEFSSVNLLEKQYNVPGPFDAIFCRNVMIYFDKTTQEDILRRFVPLLKPDGLLFAGHSENFSNLVREFSLRGQTVYALS,soluble
13,SVQNPVEVSCSLQTQIFVFTPGASSVTIIWWVCFLTSVSMSAQTSPAEKGLNPGLMCQESYACSGTDEAIFECDECCSLQCLRCEEELHRQERLRNHERIRLKPGHVPYCDLCKGLSGHLPGVRQRAIVRCQTCKINLCLECQKRTHSGGNKRRHPVTVYNVSNLQESLEAEEMDEETKRKKMTEKVVSFLLVDENEEIQVTNEEDFIRKLDCKPDQHLKVVSIFGNTGDGKSHTLNHTFFYGREVFKTSPTQESCTVGVWAAYDPVHKVAVIDTEGLLGATVNLSQRTRLLLKVLAISDLVIYRTHADRLHNDLFKFLGDASEAYLKHFTKELKATTARCGLDVPLSTLGPAVIIFHETVHTQLLGSDHPSEVPEKLIQDRFRKLGRFPEAFSSIHYKGTRTYNPPTDFSGLRRALEQLLENNTTRSPRHPGVIFKALKALSDRFSGEIPDDQMAHSSFFPDEYFTCSSLCLSCGVGCKKSMNHGKEGVPHEAKSRCRYSHQYDNRVYTCKACYERGEEVSVVPKTSASTDSPWMGLAKYAWSGYVIECPNCGVVYRSRQYWFGNQDPVDTVVRTEIVHVWPGTDGFLKDNNNAAQRLLDGMNFMAQSVSELSLGPTKAVTSWLTDQIAPAYWRPNSQILSCNKCATSFKDNDTKHHCRACGEGFCDSCSSKTRPVPERGWGPAPVRVCDNCYEARNVQLAVTEAQVDDEGGTLIARKVGEAVQNTLGAVVTAIDIPLGLVKDAARPAYWVPDHEILHCHNCRKEFSIKLSKHHCRACGQGFCDECSHDRRAVPSRGWDHPVRVCFNCNKKPGDL,soluble
14,SWYIEEDLEKVNSNYFEEKDYELCRNELETTILDSVMKRVKGLEKVGIIYSGGVDSTLISKLASEYCEVILYSVGSENSEDLIYAERAAKDMGLDFRKKIISEDEFEEYVVKVAKAIDELDVMKLSVGIPILAASEMAKEDGIKVLLSGQGADELFAGYNRYQRILNEKGEDGLKESIISDVFDIHKINLERDDHCTMANGVELRVPFLDKFVIDVGLSIPVEYKIEEPRKKILRDIASKYVPDYIAQRPKKAAQYGSGSEKM,not soluble
15,SYTEVRELVNFVCRYLFGHIPRRPVGIFGAELGNYLVSHFSSTWDVHHPKNGEMKRMINTTTSLCFASSAEEAGVPPSDVLRLLPTNMIIFANPGHVFVRLSENGIETPIWIGDVNCDENYQSVPEYVVRTAAIRAEPCSNLGAAGKSVLVGKKPLLTNDKAALEMVNTMYSPLAREKCDDINANLSHLREMYPFRFVYKPSSAQTFSGVEFSQTRFGSSKSRPDLQTMDVIKYLSSQQVSSSSSPSFTYSSINDQMRYSPRF,soluble
16,SYYHHHHHHLESTSLYKKAGLMSTPLQGIKVLDFTGVQSGPSCTQMLAWFGADVIKIERPGVGDVTRHQLRDIPDIDALYFTMLNSNKRSIELNTKTAEGKEVMEKLIREADILVENFHPGAIDHMGFTWEHIQEINPRLIFGSIKGFDECSPYVNVKAYENVAQAAGGAASTTGFWDGPPLVSAAALGDSNTGMHLLIGLLAALLHREKTGRGQRVTMSMQDAVLNLCRVKLRDQQRLDKLGYLEEYPQYPNGTFGDAVPRGGNAGGGGQPGWILKCKGWETDPNAYIYFTIQEQNWENTCKAIGKPEWITDPAYSTAHARQPHIFDIFAEIEKYTVTIDKHEAVAYLTQFDIPCAPVLSMKEISLDPSLRQSGSVVEVEQPLRGKYLTVGCPMKFSAFTPDIKAAPLLGEHTAAVLQELGYSDDEIAAMKQNHAI,soluble
17,TDSTGIDLHEFLVNTLKKNPRDRMMLLKLEQEILEFINDNNNQFKKFPQMTSYHRMLLHRVAAYFGMDHNVDQTGKAVIINKTSNTRIPEQRFSEHIKDEKNTEFQQRFIL,soluble
18,TEQPCVEKAPAYQRFHALAQPGLPGLVLPYKYQVLVEMFRSMDTIVSMLHNRSETVTFAKVKQGVQEMMRKRFEERNVGQIKTVYPTSYRFRQECNVPTFKDSIKRSDYQLTIEPLLGQEAGGATQLTATCLLQRRQVFRQNLVERVKEQHKVFLASLNPPMAVPDDQLTRWHPRFNVDEVPDIEPAELPQPPVTEK,soluble
19,TETSPDKWLIDGDTPLDEVERAIGYELPEGDYETISGLLFDHANALLKTGDVIEIPLDFEPEDYLNNTSPTQRILRITVLEVERNVPVKLALALLEDHPDNHPAPKENR,soluble
20,THALEPSKPLAHDEKPITIEVVSMDWKWFFIYPEQGIATVNEIAFPANTPVYFKVTSNSVMHSFFIPRLGSQIYAMAGMQTRLHLIANEPGTYDGICAEICGPGHSGMKFKAIATPDRAAFDQWVAKAKQSPNTMSDMAAFEKLAAPSEYNQVEYFSNVKPDLFADVINKFMAHGKSMDMTQPEGEHSAHEGMEGMDMSHAESAH,soluble
21,TKDFAFDLNVNMAHNVSKVKELAPEENVNYMFFNGDGNFPVKVGTRAGHKLGEIYATSLYKRNENGDIIVNENGLPMTVTNESEYVNKPIGNIQPKLTMSVSPTFTYKGITLSALFDMKFGGDIFSYSEMLATGNGLAKRTLNRGEENNYMMVFPGVTESGEVNTKQVSASEYYGALQAEDFIYDASFIKLKELSIGYSFPSSMLKKTPVNSLNVSFVARNLCYLMKHTPGTSPEGGYDTTMFSQAIDYASLPFTRTFGISINLGF,not soluble
22,TLYDKVWDQHKVTTLPNGQDQLFVGLHLIHEVTSPQAFGMIKERGLEVARPDLTHATVDHIVPTANQDRPYSDDAAETMMAELEENVRDAGIQFSDPTTGDQGIVHVIGPEQGITQPGKTIVCGDSHTSTHGAFGALAFGIGTSQIRDVLATQTIAMEKQKV,not soluble
23,TPDADKKGAVFALDQEPEAQAAVVALDPLSGAVKAMVGGYDFRKSQFNRALQAKRNPGSAFKPLIYAAALDKGITPATIFDDSPVEYESGKEKAWKPKNYDNIYRGNVTMREALTNSINVVSVKILEQIGVDYAIEYAKKLGITSPLSANLTLALGSSSLTPLELTSAYAVFASGGYRTTPYFVTRVEDAEGRTLEETAPPVIPRFSVMTSAESSPLEASPAPPATAGDSASTAVPVIAPETAYIMTNLMESVVQSGTGQRARAVGRPVAGKTGTTNDMKDAWFVGYIPQLVAGVWVGYDQERSLGAGGSGGQAAAPIWTEFMRRAVAGIPSRDF,not soluble
24,TPNKEDYLKCLYELGTRHNKITNKEIAQLMQVSPPAVTEMMKKLLAEELLIKDKKAGYLLTDLGLKLVSDLYRKHRLIEVFLVHHLGYTTEEIHEEAEVLEHTVSDHFVERLDQLLDYPKACPHGGTIPAKGELLVEKHKLTLEEAKEKGDYILARVHDNFDLLTYLERNGLQVGKTIRFLGYDDFSHLYSLEVDGQEIQLAQPIAQQIYVEKI,soluble
25,TPSRVEAFDNSNIHGTDPVSAMVTFLDGKPSKNDYRKYKIKTVEGPDDYATMREVIRRRYWRVLKEGLPMPDLILIDGGKGQIDSAKDVLTNELGLDIPVAGLAKDDKHRTSQLLFGDPLEIVPLERNSQEFYLLQRMQDEVHRFAITFHRQLRSKTGFQSILDGIPG,not soluble
